{
  "source": "paper PMC2656773",
  "about": "(Neuron, 2009)",
  "proteins": {"B1": {"name": "His-tagged Snapin wild-type (natural protein, UniProt Q9Z266 1-136, looked up)", "chain": "MAAAGSAAVSGAGTPVAGPTGRDLFAEGLLEFLRPAVQQLDSHVHAVRESQVELREQIDNLATELCRINEDQKVALDLDPYVKKLLNARRRVVLVNNILQNAQERLRRLNHSVAKETARRRAMLDSGVYPPGSPSK"}},
  "biological_target": "the molecule itself",
  "test": "non-reducing SDS-PAGE",
  "data": [
    {"protein": "B1", "values": [
      {"measurement": "stoichiometry N", "result": 2}
    ]}
  ]
}
